Data: paper PMC7763939

Columns and labels:
[1] = molecular target: PKSIII Mo29 Red (truncated/reduced type III polyketide synthase of Naganishia uzbekistanensis strain Mo29, without the 74 aa C-terminus extension) (Naganishia uzbekistanensis strain Mo29 (UBOCC-A-208024)); assay: SEC + other: dynamic light scattering; Sephacryl-200 gel filtration column, 50 mM Tris-HCl pH 7.5, 200 mM NaCl, size calculated with marker; DLS on a DynaPro-801; monomer to dimer
[2] = molecular target: PKSIII Mo29 Std (type III polyketide synthase of Naganishia uzbekistanensis strain Mo29, whole protein with the C-terminus extension) (Naganishia uzbekistanensis strain Mo29 (UBOCC-A-208024)); assay: as above

For “PKSIII Mo29 Red (truncated/reduced type III polyketide synthase of Naganishia uzbekistanensis strain Mo29, without the 74 aa C-terminus extension) (domain or fragment)”, the stoichiometry N [1] was 2.

“PKSIII Mo29 Std (type III polyketide synthase of Naganishia uzbekistanensis strain Mo29, whole protein with the C-terminus extension) (enzyme)” gave a stoichiometry N [2] of 2.
